In article PMC10591911 (Cell reports, 2023):

B1: recombinant 6His-3FLAG-Cdc14 (enzyme, S. cerevisiae, UniProt Q00684 1-551, looked up)
chain: MRRSVYLDNTIEFLRGRVYLGAYDYTPEDTDELVFFTVEDAIFYNSFHLDFGPMNIGHLYRFAVIFHEILNDPENANKAVVFYSSASTRQRANAACMLCCYMILVQAWTPHQVLQPLAQVDPPFMPFRDAGYSNADFEITIQDVVYGVWRAKEKGLIDLHSFNLESYEKYEHVEFGDFNVLTPDFIAFASPQEDHPKGYLATKSSHLNQPFKSVLNFFANNNVQLVVRLNSHLYNKKHFEDIGIQHLDLIFEDGTCPDLSIVKNFVGAAETIIKRGGKIAVHCKAGLGRTGCLIGAHLIYTYGFTANECIGFLRFIRPGMVVGPQQHWLYLHQNDFREWKYTTRISLKPSEAIGGLYPLISLEEYRLQKKKLKDDKRVAQNNIEGELRDLTMTPPSNGHGALSARNSSQPSTANNGSNSFKSSAVPQTSPGQPRKGQNGSNTIEDINNNRNPTSHANRKVVIESNNSDDESMQDTNGTSNHYPKVSRKKNDISSASSSRMEDNEPSATNINNAADDTILRQLLPKNRRVTSGRRTTSAAGGIRKISGSIKK

What was measured:
[1] = target: Rim4-FLAG (S. cerevisiae) (UniProt P38741); assay: mass photometry
[2] = target: recombinant Bmh1-EGFP-His6 (S. cerevisiae) (UniProt P29311); assay: pull-down
[3] = target: recombinant Bmh1/2-EGFP-His6 (S. cerevisiae) (UniProt P29311); assay: pull-down
[4] = target: recombinant Bmh2-EGFP-His6 (S. cerevisiae) (UniProt P34730); assay: pull-down
[5] = target: T1, recombinant Rim4(PxLm)-His6 (S. cerevisiae, UniProt P38741 1-713, P454E455L456 to A454E455G456); assay: pull-down
T1 sequence (looked up): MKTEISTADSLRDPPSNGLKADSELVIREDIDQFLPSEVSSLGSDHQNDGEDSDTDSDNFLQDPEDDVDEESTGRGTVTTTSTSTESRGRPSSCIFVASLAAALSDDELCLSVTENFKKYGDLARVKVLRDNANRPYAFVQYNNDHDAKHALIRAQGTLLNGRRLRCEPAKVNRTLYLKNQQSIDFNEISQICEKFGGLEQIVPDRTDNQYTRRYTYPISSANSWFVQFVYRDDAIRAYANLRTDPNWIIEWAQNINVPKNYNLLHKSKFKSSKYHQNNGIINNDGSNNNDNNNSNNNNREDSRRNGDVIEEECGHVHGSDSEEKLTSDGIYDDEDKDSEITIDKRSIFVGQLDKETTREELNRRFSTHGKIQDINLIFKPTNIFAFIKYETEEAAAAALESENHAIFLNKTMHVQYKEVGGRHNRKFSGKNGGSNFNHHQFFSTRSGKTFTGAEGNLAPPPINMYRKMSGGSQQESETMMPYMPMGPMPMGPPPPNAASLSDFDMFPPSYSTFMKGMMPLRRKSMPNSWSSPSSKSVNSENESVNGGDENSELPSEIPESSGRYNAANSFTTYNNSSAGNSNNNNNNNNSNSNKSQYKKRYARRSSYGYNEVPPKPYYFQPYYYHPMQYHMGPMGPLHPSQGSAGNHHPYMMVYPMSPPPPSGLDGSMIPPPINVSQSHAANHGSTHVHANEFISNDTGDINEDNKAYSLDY

Bmh1 = target: T2, Bmh1 (S. cerevisiae (endogenous in W303 …, UniProt P29311 1-267)); assay: mass photometry
T2 sequence (looked up): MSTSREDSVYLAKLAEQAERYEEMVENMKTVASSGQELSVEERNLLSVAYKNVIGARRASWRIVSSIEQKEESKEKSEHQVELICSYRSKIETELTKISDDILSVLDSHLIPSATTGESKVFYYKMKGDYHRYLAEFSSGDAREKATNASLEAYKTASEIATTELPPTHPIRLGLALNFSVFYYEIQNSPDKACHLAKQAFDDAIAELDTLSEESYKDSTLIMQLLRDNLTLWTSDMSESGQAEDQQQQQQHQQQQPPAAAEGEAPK

[6] = target: B1; assay: pull-down

Bmh1 (from UniProt P29311 1-267) (natural protein)
stoichiometry N [1]: 1

Bmh2 (from UniProt P34730 1-273) (natural protein)
stoichiometry N [1]: 1

PKA-treated Rim4-His6 (Rim4-BBS-p) (from UniProt P38741 1-713) (natural protein)
mole ratio in the pull-down, printed 2.5:1 [2]: 2.5 | mole ratio in the pull-down, printed 2.5:1 [3]: 2.5 | mole ratio in the pull-down, printed 2.5:1 [4]: 2.5

B1
binding result [5]: binds

B2: Bmh2 (natural protein, UniProt P34730 1-273, looked up)
chain: MSQTREDSVYLAKLAEQAERYEEMVENMKAVASSGQELSVEERNLLSVAYKNVIGARRASWRIVSSIEQKEESKEKSEHQVELIRSYRSKIETELTKISDDILSVLDSHLIPSATTGESKVFYYKMKGDYHRYLAEFSSGDAREKATNSSLEAYKTASEIATTELPPTHPIRLGLALNFSVFYYEIQNSPDKACHLAKQAFDDAIAELDTLSEESYKDSTLIMQLLRDNLTLWTSDISESGQEDQQQQQQQQQQQQQQQQQAPAEQTQGEPTK
stoichiometry N (Bmh1): 1

B3: recombinant Rim4(ΔC289)-His6 (domain or fragment, S. cerevisiae, UniProt P38741 1-424, looked up)
chain: MKTEISTADSLRDPPSNGLKADSELVIREDIDQFLPSEVSSLGSDHQNDGEDSDTDSDNFLQDPEDDVDEESTGRGTVTTTSTSTESRGRPSSCIFVASLAAALSDDELCLSVTENFKKYGDLARVKVLRDNANRPYAFVQYNNDHDAKHALIRAQGTLLNGRRLRCEPAKVNRTLYLKNQQSIDFNEISQICEKFGGLEQIVPDRTDNQYTRRYTYPISSANSWFVQFVYRDDAIRAYANLRTDPNWIIEWAQNINVPKNYNLLHKSKFKSSKYHQNNGIINNDGSNNNDNNNSNNNNREDSRRNGDVIEEECGHVHGSDSEEKLTSDGIYDDEDKDSEITIDKRSIFVGQLDKETTREELNRRFSTHGKIQDINLIFKPTNIFAFIKYETEEAAAAALESENHAIFLNKTMHVQYKEVGGRH
binding result [6]: binds
